The target in test [1] is Human CCR7 WT (human) (UniProt P32248).
Test [2] has the same target. The source holds these as a separate data set.

Where two headings read alike, the source gives them in different places.

UniProt P32248, sequence (P32248 25-378): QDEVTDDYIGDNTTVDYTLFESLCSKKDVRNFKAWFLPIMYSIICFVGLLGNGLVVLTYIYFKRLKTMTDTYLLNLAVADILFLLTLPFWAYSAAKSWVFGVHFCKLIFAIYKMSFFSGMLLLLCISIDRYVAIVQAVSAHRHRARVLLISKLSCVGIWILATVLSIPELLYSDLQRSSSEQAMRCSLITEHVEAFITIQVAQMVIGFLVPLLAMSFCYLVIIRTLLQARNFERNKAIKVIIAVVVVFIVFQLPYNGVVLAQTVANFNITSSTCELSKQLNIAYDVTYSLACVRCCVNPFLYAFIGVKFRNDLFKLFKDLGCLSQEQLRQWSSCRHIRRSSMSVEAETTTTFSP

Take “CCL19 K71A K73A R74A R75A (CCL19 AMAAA^71-75) (ligand)”: in the test with Human CCR7 WT (human) [1], the increase in potency in Gαi signalling (BRET) with 10 μM long C21TP (CCL21 81-111) added is 3 fold; the increase in potency in Gαi signalling (BRET) with 10 μM short C21TP (CCL21 89-106) added is 3.5 fold; the potency in Gαi signalling (BRET), against WT CCL19 amounted to 22 fold.

As to “CCL21 1-91 C80A (from UniProt O00585 24-114) (ligand)”, in the test with Human CCR7 WT (human) [2], the increase in potency in Gαi signalling (BRET) with 10 μM long C21TP (CCL21 81-111) added stood at 19.7 fold and the increase in potency in Gαi signalling (BRET) with 10 μM short C21TP (CCL21 89-106) added is 16.6 fold.
